In doi:10.1101/2021.03.07.432812:

How the values were obtained:
[1] = molecular target: Y177A, W151A, and F141A; test: ITC
[2] = molecular target: Spindlin1_(50-262) bound to DOCpep(1-3) (UniProt Q9Y657); test: ITC

Row | Substance | fold reduction of binding against wild-type Spindlin1 [1] | fold decrease of binding affinity in the presence of DOCpep(1-3) [2]
1 | DOCpep2, SPIN•DOC 228-239 peptide (from UniProt Q9BUA3 228-239) | 1.5 to 3 fold | 
2 | histone H3 1-20 K4me3 peptide (from UniProt P68431 2-21) |  | 18 fold
